Assay results reported in paper PMC6611850.

What was measured:
[1] = target: T. thermophilus Csm2 (T. thermophilus); experiment: cryo-EM structure; TthCsm bound to a 50-nt complementary target RNA, with noncomplementary ssDNA and 1 mM EDTA; 3.8 Å
[2] = target: T. thermophilus Csm3 (T. thermophilus); experiment: as above

stoichiometry N [1] | stoichiometry N [2] | Substance
4 | – | T. thermophilus Csm2 (natural protein)
– | 6 | T. thermophilus Csm3 (natural protein)
